# Publication PMC10700433
# Biological target: IgG4 control antibody
# Assay: BLI; Octet RED96; antibodies captured on FABG2 biosensor tips, recombinant FcRn in solution; association studied at physiological pH, dissociation at pH6
# Chain of mouse FcγRIV (A0A0B4J1G0 21-249): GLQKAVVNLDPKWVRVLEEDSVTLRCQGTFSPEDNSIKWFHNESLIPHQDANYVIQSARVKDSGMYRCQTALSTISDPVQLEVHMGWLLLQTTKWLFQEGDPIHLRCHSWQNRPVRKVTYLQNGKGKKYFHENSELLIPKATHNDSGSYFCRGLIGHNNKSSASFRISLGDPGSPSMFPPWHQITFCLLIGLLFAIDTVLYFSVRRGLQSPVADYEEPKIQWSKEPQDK
# Chain of mouse FcRn (Q61559 22-365): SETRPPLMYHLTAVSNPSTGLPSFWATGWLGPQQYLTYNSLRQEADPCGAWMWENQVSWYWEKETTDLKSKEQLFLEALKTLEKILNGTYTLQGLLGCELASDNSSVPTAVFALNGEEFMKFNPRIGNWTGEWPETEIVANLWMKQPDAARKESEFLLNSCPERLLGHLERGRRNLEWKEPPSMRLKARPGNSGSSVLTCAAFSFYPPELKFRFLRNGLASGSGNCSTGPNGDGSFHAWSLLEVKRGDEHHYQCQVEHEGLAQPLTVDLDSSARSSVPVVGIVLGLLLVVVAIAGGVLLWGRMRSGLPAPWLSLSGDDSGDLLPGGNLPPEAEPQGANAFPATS
# Chain of human FcRn (P55899 24-365): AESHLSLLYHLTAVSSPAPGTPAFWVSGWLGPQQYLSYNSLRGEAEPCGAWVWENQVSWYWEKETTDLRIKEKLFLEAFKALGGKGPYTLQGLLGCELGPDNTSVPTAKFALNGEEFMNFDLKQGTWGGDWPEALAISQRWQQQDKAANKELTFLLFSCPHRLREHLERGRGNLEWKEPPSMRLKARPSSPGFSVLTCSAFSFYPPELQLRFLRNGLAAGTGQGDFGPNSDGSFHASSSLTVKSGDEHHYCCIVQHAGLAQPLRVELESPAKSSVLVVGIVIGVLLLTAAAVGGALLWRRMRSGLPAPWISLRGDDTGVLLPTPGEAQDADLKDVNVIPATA
# Chain of mouse FcγRI (P26151 25-404): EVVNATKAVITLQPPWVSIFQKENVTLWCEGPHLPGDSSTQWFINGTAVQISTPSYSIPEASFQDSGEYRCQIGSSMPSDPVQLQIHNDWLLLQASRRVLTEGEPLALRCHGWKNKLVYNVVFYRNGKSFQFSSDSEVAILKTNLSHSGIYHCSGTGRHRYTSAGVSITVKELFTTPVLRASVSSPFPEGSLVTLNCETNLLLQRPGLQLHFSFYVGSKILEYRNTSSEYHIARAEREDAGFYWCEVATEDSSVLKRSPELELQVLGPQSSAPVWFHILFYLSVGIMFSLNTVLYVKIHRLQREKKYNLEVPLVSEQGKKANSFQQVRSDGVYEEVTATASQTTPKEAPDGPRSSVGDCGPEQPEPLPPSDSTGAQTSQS
row,Substance,Kd [nM]
1,mouse FcRn (from UniProt Q61559 22-365) (receptor),200
2,human FcRn (from UniProt P55899 24-365) (receptor),600

# Biological target: IgG4 control antibody
# Assay: BLI; Octet RED96; antibodies captured on FABG2 biosensor tips, recombinant Fcγ receptors in solution at suitable concentration ranges; association and dissociation at physiological pH
row,Substance,Kd [nM]
1,human FcγRIIa (from UniProt P12318 34-317) (receptor),500
2,human FcγRIII 176V (from UniProt P08637 17-254) (receptor),600000
3,mouse FcγRIV (from UniProt A0A0B4J1G0 21-249) (receptor),2000

# Continued, values first:
row,Kd [nM],Substance
1,700,mouse FcγRIIb (from UniProt P08101 30-330) (receptor)
2,200,mouse FcγRI (from UniProt P26151 25-404) (receptor)
3,100,mouse FcγRIII (from UniProt P08508 31-261) (receptor)
4,600,human FcγRIIb (from UniProt P31994 43-310) (receptor)
